The values that follow come from patent US20230346885A1 (published 2023).

Common to all, as to experiment: binding, other
Test [1] deals with T1, CT45A1 peptide on HLA (human).
T1 peptide: KLVKELRCV

Test [2] concerns the target T2, CLDN6 peptide on HLA (human).
T2 peptide: VLTSGIVFV

The target of test [3] is T3, CT45A1 peptide on HLA (human).
T3 peptide: SLIAGSAMSKA

In test [4] the target is T4, CT45A1 peptide on HLA (human).
T4 peptide: KIFEMLEGV

Test [5] has as its target T5, CLDN6 peptide on HLA (human).
T5 peptide: TLIPVCWTA

Where a chain is given by its changes, count along the chain named.

B1: TCR of SEQ ID NOs 347 and 348 (TCR, V domains shown)
Valpha: KQEVTQIPAALSVPEGENLVLNCSFTDSAIYNLQWFRQDPGKGLTSLLLIQSSQREQTSGRLNASLDKSSGRSTLYIAASQPGDSATYLCAVRTTDSWGKLQFGAGTPVVVTP
Vbeta: NAGVTQTPKFQVLKIGQSMTLQCTQDMNHNYMYWYRQDPGMGLKLIYYSVGAGITDKGEVPNGYNVSRSTTEDFPLRLELAAPSQTSVYFCASSSPLGKQYFGPGTRLTVL
B1: the binding result with CT45A1 peptide on HLA [1] was “recognises”.

B2: TCR of SEQ ID NOs 351 and 352 (TCR, V domains shown)
Valpha: KQEVTQIPVALSVPEGENLVLNCSFTDSAIYNLQWFRQDPGKGLTSLLLIQSSQREQTSGRLNASLDKSSGRSTLYIAASQPGDSATYLCALRGEADSWGKLQFGAGTQVVVTP
Vbeta: B1 Vbeta with I15T, T24A, K99E, L111T
B2: the binding result with CT45A1 peptide on HLA [1] was “recognises”.

B3: TCR of SEQ ID NOs 349 and 350 (TCR, V domains shown)
Valpha: KQEVTQIPAALSVPEGENLVLNCSFTDSAIYNLQWFRQDPGKGLTSLLLIQSSQREQTSGRLNASLDKSSGRSTLYIAASQPGDSATYLCAVTNAGKSTFGDGTTLTVKP
Vbeta: NAGVTQTPKFQVLKTGQSMTLQCAQDMNHEYMSWYRQDPGMGLRLIHYSVGAGITDQGEVPNGYNVSRSTTEDFPLRLESAAPSQTSVYFCASSEVPGPYGYTFGSGTRLTVV
Regarding B3, the binding result with CT45A1 peptide on HLA [1] was “recognises”.

B4: TCR of SEQ ID NOs 339 and 340 (TCR, V domains shown)
Valpha: KQEVTQIPAALSVPEGENLVLNCSFTDSAIYNLQWFRQDPGKGLTSLLLIQSSQREQTSGRLNASLDKSSGRSTLYIAASQPGDSATYLCAVRPLGGGYQKVTFGTGTKLQVIP
Vbeta: NAGVTQTPKFRVLKTGQSMTLQCAQDMNHNSMYWYRQDPGMGLRLIYYSASEGTTDKGEVPNGYNVSRLNKREFSLRLESAAPSQTSVYFCASSDTGTSVTGELFFGEGSRLTVL
Take B4: the binding result in the test with CLDN6 peptide on HLA [2] was “recognises”.

B5: TCR of SEQ ID NOs 341 and 342 (TCR, V domains shown)
Valpha: QKEVEQNSGPLSVPEGAIASLNCTYSDRGSQSFFWYRQYSGKSPELIMFIYSNGDKEDGRFTAQLNKASQYVSLLIRDSQPSDSATYLCAVGTSYDKVIFGPGTSLSVIP
Vbeta: NAGVTQTPKFQVLKTGQSMTLQCAQDMNHEYMSWYRQDPGMGLRLIHYSVGAGITDQGEVPNGYNVSRSTTEDFPLRLLSAAPSQTSVYFCASSYGGGSGYTFGSGTRLTVV
For the molecule B5, the binding result in the test with CT45A1 peptide on HLA [3] is “recognises”.

B6: TCR of SEQ ID NOs 353 and 354 (TCR, V domains shown)
Valpha: QKEVEQNSGPLSVPEGAIASLNCTYSDRGSQSFFWYRQYSGKSPELIMSIYSNGDKEDGRFTAQLNKASQYVSLLIRDSQPSDSATYLCAVNYRGALTFGSGTRLQVQP
Vbeta: NAGVTQTPKFRILKIGQSMTLQCTQDMNHNYMYWYRQDPGMGLKLIYYSVGAGITDQGEVPNGYNVSRSTTEDFPLRLLSAAPSQTSVYFCASSYLRTGGNYGYTFGSGTRLTVV
Turning to B6, the binding result with CT45A1 peptide on HLA [4] was “recognises”.

B7: TCR of SEQ ID NOs 331 and 332 (TCR, V domains shown)
Valpha: KQEVTQIPAALSVPEGENLVLNCSFTDSAIYNLQWFRQDPGKGLTSLLLIQSSQREQTSGRLNASLDKSSGRSTLYIAASQPGDSATYLCAAKAAGNKLTFGGGTRVLVKP
Vbeta: NAGVTQTPKFQVLKTGQSMTLQCAQDMNHNSMYWYRQDPGMGLRLIYYSASEGTTDKGEVPNGYNVSRLNKREFSLRLESAAPSQTSVYFCASSESLGVTGTAFFGQGTRLTVV
Regarding B7, the binding result in the test with CLDN6 peptide on HLA [5] was “recognises”.

B8: TCR of SEQ ID NOs 345 and 346 (TCR, V domains shown)
Valpha: B3 Valpha with T93R, N94G, A95Y, G96Q, S98V, D102T, T105K, T107Q, K109I
Vbeta: B7 Vbeta with S96A, L97S, V99L, T100R, G101S, T102P, A103L, F104H, Q107N, V114T
With B8, the binding result with CT45A1 peptide on HLA [3] is on record as “recognises”.

B9: TCR of SEQ ID NOs 333 and 334 (TCR, V domains shown)
Valpha: KQEVTQIPAALSVPEGENLVLNCSFTDSAIYNLQWFRQDPGKGLTSLLLIQSSQREQTSGRLNASLDKSSGRSTLYIAASQPGDSATYLCAVKKDAGNKLTFGGGTRVLVKP
Vbeta: B7 Vbeta with S75P, E79L, E95R, S96R, V99A, T100S, G101S, T102E
On to B9, for which the binding result with CLDN6 peptide on HLA [5] is “recognises”.

B10: TCR of SEQ ID NOs 357 and 358 (TCR, V domains shown)
Valpha: KQEVTQIPAALSVPEGENLVLNCSFTDSAIYNLQWFRQDPGKGLTSLLLIQSSQREQTSGRLNASLDKSSGRSTLYIAASQPGDSATYLCAVKVWSNTGKLIFGQGTTLQVKP
Vbeta: NAGVTQTPKFRILKIGQSMTLQCTQDMNHNYMYWYRQDPGMGLKLIYYSVGAGITDKGEVPNGYNVSRSTTEDFPLRLELAAPSQTSVYFCASSYEGDISYGYTFGFGTRLTVV
For the molecule B10, the binding result with CT45A1 peptide on HLA [4] is given as “recognises”.

B11: TCR of SEQ ID NOs 343 and 344 (TCR, V domains shown)
Valpha: QKEVEQNSGPLSVPEGAIASLNCTYSDRGSQSFFWYRQYSGKSPELIMFIYSNGDKEDGRFTAQLNKASQYVSLLIRDSQPSDSATYLCAVGGAGGYQKVTFGTGTKLQVIP
Vbeta: NAGVTQTPKFQVLKTGQSMTLQCAQDMNHEYMSWYRQDPGMGLRLIHYSVGAGITDQGEVPNGYNVSRSTTEDFPLRLLSAAPSQTSVYFCASSYSGNEQYFGPGTRLTVT
For B11, the binding result in the test with CT45A1 peptide on HLA [3] is “recognises”.

B12: TCR of SEQ ID NOs 335 and 336 (TCR, V domains shown)
Valpha: KQEVTQIPAALSVPEGENLVLNCSFTDSAIYNLQWFRQDPGKGLTSLLLIQSSQREQTSGRLNASLDKSSGRSTLYIAASQPGDSATYLCAVRHLSNDYKLSFGAGTTVTVRA
Vbeta: NAGVTQTPKFQVLKTGQSMTLQCAQDMNHEYMSWYRQDPGMGLRLIHYSVGAGITDQGEVPNGYNVSRSTTEDFPLRLLSAAPSQTSVYFCASKRGFDEGSPLHFGNGTRLTVT
Turning to B12, the binding result in the test with CLDN6 peptide on HLA [2] is on record as “recognises”.

B13: TCR of SEQ ID NOs 329 and 330 (TCR, V domains shown)
Valpha: KQEVTQIPAALSVPEGENLVLNCSFTDSAIYNLQWFRQDPGKGLTSLLLIQSSQREQTSGRLNASLDKSSGRSTLYIAASQPGDSATYLCAVQGYGTALIFGKGTTLSVSS
Vbeta: NAGVTQTPKFQVLKTGQSMTLQCAQDMNHEYMSWYRQDPGMGLRLIHYSVGAGITDQGEVPNGYNVSRSTTEDFPLRLLSAAPSQTSVYFCASSQGPYMNTEAFFGQGTRLTVV
Turning to B13, the binding result with CLDN6 peptide on HLA [5] is recorded as “recognises”.

B14: TCR of SEQ ID NOs 337 and 338 (TCR, V domains shown)
Valpha: B9 Valpha with K93R, K94H, D95N, A96Q, N98G, T101I, G104Q, R107E, V108L, L109S
Vbeta: NAGVTQTPKFRVLKTGQSMTLLCAQDMNHEYMYWYRQDPGMGLRLIHYSVGAGITDQGEVPNGYNVSRLNKREFSLRLESAAPSQTSVYFCASSDRGVYEQYFGPGTRLTVT
Turning to B14, the binding result with CLDN6 peptide on HLA [2] is recorded as “recognises”.

B15: TCR of SEQ ID NOs 355 and 356 (TCR, V domains shown)
Valpha: B2 Valpha with V9A, L92V, R93W, G94R, E95T, A96T
Vbeta: NAGVTQTPKFRILKIGQSMTLQCTQDMNHNYMYWYRQDPGMGLKLIYYSVGAGITDKGEVPNGYNVSRSTTEDFPLRLLSAAPSQTSVYFCASSYGQGYGYTFGSGTRLTVV
With B15, the binding result with CT45A1 peptide on HLA [4] is “recognises”.
